This is an account of results in the DeepSol protein solubility set.

The nature of this data set: soluble on expression in E. coli; label from the status in PepcDB or PDB records.
With “MAHHHHHHMSITSRFIGGVKHLLKGGSMKYLAAGEPYCPFGEAFGLTILPEYILEDDASNLRKGYVDVYTRASDRIILNDGRFQLPPLPPASFMPLLERLEQDNVVPKSWLNNQTANLYEPGDFIRAHIDNLFVYDDIFAICSLGSNCLLRFVHVQNGEELDVMVPDRSVYIMSGPARYVYFHMVLPVEAQRFSLVFRRSIMESDGGFRPVKTPFKEIMPYRATQILNALYSKQVGGVRVSVDDDFLESADIGAFDTSRWVKRLHPLRDWSLLRQLDEDEARVEALREKRFIDVDFSWRYRELRSYYKAMEESLVSPHVAHVTPQA”, the “soluble on expression in E. coli” value is recorded as “soluble”. Consider “MGSDKIHHHHHHMSEVHTTIIDLDAGAVFSGTPSGRIIKGFDKPCAHTPNIDPDYVFHECSRDIVVWLMDSSDPLYVFGPTGSGKTSAIKQLAARLNYPVFDVTGHGRLEFPDLVGHLSVRDGSMEFQYGPLALAMRHGGILLLNEIDLLEPATATGFNGILDGEPLCIPENGGEIITPHPMFRFAATANTNGGSDDTGLYQGTLRQNLAFLDRFWLCEMPYPAPEAEKALLERRAPMLPDDIRTRMVDYANEVRRLFMGESGTTYGHSIEVTFSTRTLLRWADLTVRFQPLARQGIQPLTYALDRALGFKASKDTRTTLHELAQRLFPQHAATGE”, for which the “soluble on expression in E. coli” value is “not soluble”. With “QGHVGDHDSHEVMQRLDALLPTLRERAQETEDLRRIPDDSMKALQETGFFRLLQPEQWGGYQADPVLFYSAVRKIASACGSTGWVSSIIGVHNWHLALFSQQAQEDVWGNDTDVRISSSYAPMGAGQVVDGGYTVNGAWAWSSGCDHASWAVLGGPVIKDGRPVDFVSFLIPREDYRIDDVWNVVGLRGTGSNTVVVEDVFVPTHRVLSFKAMSNLTAPGLERNTAPVYKMPWGTIHPTTISAPIVGMAYGAYDAHVEHQGKRVRAAFAGEKAKDDPFAKVRIAEASSDIDAAWRQLSGNVADEYALLVAGEEVPFELRLRARRDQVRATGRAISSIDKLFESSGATALANGTPLQRFWRDAHAGRVHAANDPERAYVMYGTGEFGLPITDTMV” the entry was “soluble”; with “MTAHPPRPELQIDIVSDVVCPWCIVGFRQLDQALAATGVLARLRWHPFELNPQMGPEGQNLREHIMEKYGSTPEQSAEARARLTAIGAELGFTFNFTDDSRIVNTFAAHQLLDWAEGQGRQHPLKQALFAAYFTDGRDVSDLSVLLDAVEAAGLDREAAQTALTSGAHQAPVREKQKFWAQHGISGVPSMVFGGKYLLTGAQGADTYAQVIQRCLAEAA”, “not soluble”.

Turning to “MAHHHHHHMVVLKGGGTTYAVGNGRQMPWEEVPEGFKRRLAEQEEITPCVELRAIAQRCIEVEGFWAPNCVEATEQFHSCQAQHLAGCLPNWTHHNNNNINN”, the “soluble on expression in E. coli” value is “not soluble”. The result for “MGSDKIHHHHHHVYTSFYGFKAKPFQLSPDPSFFFGSKGHNRAMAYLEYGLAQAEGFIVVTGEVGAGKTTLVRNLFRQLEPEKIVAAQIVNTSLDSDDTLRMVAAAFGLPLAQGNPGKTPVLVALEKFFRQCEQQGKRALLVVDEAQNLSPQTVEELRMLSNFQGDNKSLLQTFLLGQPEFRKTLLGNDMQQLRQRITATYHLGPMDRAETKSYIEHRLKTVGWGGNPGFDEEAFDAIHQYTGGIPRRINALCDRLLLMGYLEKLQHFGVSEVNEVIRDIQQEFDAVEVEAGLLSGDKTSPLKEEQFAIGLEEMSNRIAKLEETVVSLMGLLKQILSLADVNKRLR” reads “not soluble”.

For “MAALRNGLEGSSEETSFHDESLQDDREEIENNSYHMHPAGIILTKVGYYTIPSMDDLAKITNEKGECIVSDFTIGRKGYGSIYFEGDVNLTNLNLDDIVHIRRKEVVVYLDDNQKPPVGEGLNRKAEVTLDGVWPTDKTSRCLIKSPDRLADINYEGRLEAVSRKQGAQFKEYRPETGSWVFKVSHF”, the “soluble on expression in E. coli” value is “soluble”.

In the case of “TSRNYLLLTPGPLTTSRTVKEAMLFDSCTWDDDYNIGVVEQIRQQLTALATASEGYTSVLLQGSGSYAVEAVLGSALGPQDKVLIVSNGAYGARMVEMAGLMGIAHHAYDCGEVARPDVQAIDAILNADPTISHIAMVHSETTTGMLNPIDEVGALAHRYGKTYIVDAMSSFGGIPMDIAALHIDYLISSANKCIQGVPGFAFVIAREQKLAACKGHSRSLSLDLYAQWRCMEDNHGKWRFTSPTHTVLAFAQALKELAKEGGVAARHQRYQQNQRSLVAGMRALGFNTLLDDELHSPIITAFYSPEDPQYRFSEFYRRLKEQGFVIYPGKVSQSDCFRIGNIGEVYAADITALLTAIRTAMYWTK”, the “soluble on expression in E. coli” value is “soluble”. The result for “MGHHHHHHSHMNGEIMDDSLKTSLITEEEDSTSEVLDEELKLQPFNSSEDSTNLVPLVVESSKPPEVDAPDKTPRIPDSEMLMDEGTSDEKGHMEEKLSLLPRKKAHLGSSDNVATMSNEERSDGGFPNSVIAEFSEEPVSENLSPNTTSSLEDQGEEGVSEPQETSTALPQSSLIEVELEDVPFSQNAGQKNQSEEQSEASSEQLDQFTQSAEKAVDSSSEEIEVEVPVVDRRNLRRKAKGHKGPAKKKAKLT” reads “not soluble”; that for “MQKIKSLMTRQGLKSPQESLSDLGAIESLRVPGKEEFRELREQPSDPQAEQELINSIEQVYFSVDSFDIVKYELEKLPPVLNLQELEAYRDKLKQQQAAVSKKVADLILEKQPAYVKELERVTSLQTGLQLAAVICTNGRRHLNIAKEGFTQASLGLLANQRKRQLLIGLLKSLRTIKTLQRTDVRLSEMLEEEDYPGAIQLCLECQKAASTFKHYSCISELNSKLQDTLEQIEEQLDVALSKICKNFDINHYTKVQQAYRLLGKTQTAMDQLHMHFTQAIHNTVFQVVLGYVELCAGNTDTKFQKLQYKDLCTVCSDLITIHISLL”, “soluble”. Consider “SNAMADGIYGSFENLKKHAGTMTLEAYMRFSAKLSEAKDEMGTKEYEVFTKELKKLTNAKLAYGDANGNIDYDALSPEKREEMKTVSMGLQPYFDKLNGHKSSKEVLTQEEFDRYMEALMTHEIVRVKTKSTGAIKVEEVPEAYKERFMKAEQFMEYVDEKVR”, for which the “soluble on expression in E. coli” value is on record as “soluble”. Regarding “MIIREQRVEKFNAGKAVYQSVSKTESLARTAKDRKICANLEEAIRRSGLKDGMTVSFHHAFRAGDCVVNMVMNKIAEMGFKNLTLASSSLIDSHYPLIEHIKNGVVTKIYSSGLRGQLADEISRGLLAEPVNIHSHGGRVHLIKAGELKIDVAFLGVPCCDKFGNANGFSGKSKCGSLGYARIDAEYADKVVLLTEQFDEYPLNPISIGQDNVDLIVQVDEVGDPEKIGGGATRMTTNPRELLIARKCAQVIFASGYFKDGFSLQTGTGGASLAVTRFLEDKMRREQITAGFALGGITSSIVALHEAGLIKKLIDVQSFDKDAAESLARNPNHIEVSANQYANYSSKGPSVECLDIVVLSALEIDTQFNVNVLTGSDGVIRGASGGHSDTAASAQVAIIVAPLVRGRIPTVVEQVITCVTPGENIDILVTDHGVAVNPKRLDLVDKLTAAGLELFTIEQLCARAYSITGKSKEIEFKDKPVAVVRYRDGSVIDTVYQIKELEHHHHHH”, the “soluble on expression in E. coli” value is reported as “soluble”.

Take “MGSDKIHHHHHHMSYLTSSRCKLFYEDTAEQNPSLKDKPAILFVNGWAISSRYWRPTIDLLRQDFRCVTYDQSGTGKTSIDGCQPDLTIGGFADEAGALIEHLGLDKSRNLHIVGHSMGGMVATELCLRYRDALLSATILACGIFEETPFTSLGLMFLGGLIDVSMNFRNMFRVEPLRTLFIKRAATGHISKEYSDIIIEDFTTSDKAATNAVGHFSIDPEALRTYTRSVIEIASPVLCCVGMADHTIPPEGTITLFEKRKASATSPTRLVQFMHLGHLPMLEDTPCFVEQLKKHFDFAEHFYKKTQPATPLADRVQIQ”: the “soluble on expression in E. coli” value was “not soluble”. The result for “MSLDLKQVLRATMVKGVLQRGTIALGNDPGVLRIYTRAACPGTLAKNYLGEWCFASKVAEEASPRVHVVGDIHGNIEALFKVLIRTKLFILDEPMSNESYEGYEDPEEPFSVKGWGVHPRYAVEGTQKYIVKDYDHIYLFLGDYVDRGSFSIECLVVLLGLKILFPNAVYLLRGNHETRACLQRGQLFQELIHKYEYVEASKITDRLLRLFDALPTCALINDYVFAVHAGIYSKNASLADIEKYCTKRAPCSKFHTKAPYFDPLHNMLWADFVEDQPAIDLSQDNRRRNTGIVFYPSTVKEFLKNEGLGLFIRGHQSTPFGVSISQTGKLVTVSINSDSTPTWLGAVLTLVHPADADASESISPVNLASEGHHHHHH” reads “not soluble”; that for “KAELKMLEAIEEDLNTRFADVDRKQLRLGAAGTFQKQEDADQWYKMVKDTFENEIDDIYYDSLSFSIGCHVGPNAIGIGISVVTRDEK”, “not soluble”; that for “MGSDKIHHHHHHMVHGVPCFVAHRGYPALYPENSLVGIRAAVQAGARYVEIDIQLSRQLTPYLCHDDNLKRLTGRNAYLTRLKDDEIDTLTVSCPDVTCSSGTEPAPIPRLAEFCRYLAQHPQVTTFVEIKSESIARFGLSKTMDAILPVIDVVHTQCVLISFDWELIALIKSHQMYKTGWIIEHWTDEQSAMAARLQPDYLFSSIRCLPEKLDQLWPGPWQWVIYTVDDYATALGYAEAGITLIETDTISTLLAP”, “not soluble”. With “MGSDKIHHHHHHMRKLYILGMILGMYATFSACNDEWKDELYTQMLSFKAPLGDNGLSEIYVRYQPDGTGIYQLPVIVSGSKSNSRNIDAKIAVDEDTLRILNQEKFPVGRQDLWYVPLAEQHYSFESNICHIPAGENIQLYPIHFNFNGLELDEKYVLPLTIEEDPSYVQNKYKGRYKALLGVNLFNDYSGTYNTTLMNIYIEGTTTDPAKVDTRLARVVDENTIFFYAGSTWVEDENRSRYKVFVEFEEGTEDEEGTIKGKLRLYGDEGEPGINIRPLGECKYEKRIIQHETIKYMERHLTTLELSYKYTDVTSNPDYPITYEVKGSMTMERQINPLIPDEDQAIEW” the entry was “not soluble”; with “MGSDKIHHHHHHASHYLLLGGSGWDKIAIVNKNTKEIEWEHPLEKGWECNSVAVTPDRNILFSYSKGAKLITRDHEEVWNISAPEGCEMQTARVLPNGNYLLAWCGYPATIMEVNAKGEILSKTDFDTHIEQPHAQFRQVNKNKQGNYLVPLFATSEIREISPSGQLLKSVKVDGNPFSVAALDNGNYLVACGDAHCFIELNFETGDIVRKVNENDIEGAQLFFVAQLLPKRDGGLYICNWQGHDGEAAKGHYPQLIEINGAGKMVWDLNDNATFGMISSICPID”, “not soluble”. For the sequence “MVRLTTELFAERPQFVNSVNMREINLRGQKIPVIENMGVTRDQFDVIDLTDNDIRKLDNFPTFSRLNTLYLHNNRINYIAPDIATKLPNLKTLALTNNNICELGDIEPLAECKKLEYVTFIGNPITHKDNYRMYMIYKLPTVRVIDFNRVRLTEREAAKKMFKGKSGKKARDAIQKSVHTEDPSEIEPNENSSGGGARLTDEDREKIKEAIKNAKSLSEVNYLQSILASGKVPEKGWNRQMDQNGADGEAMES”, the “soluble on expression in E. coli” value is listed as “not soluble”. The result for “MALREFSSVKVGDQLPEKTYPLTRQDLVNYAGVSGDLNPIHWDDEIAKVVGLDTAIAHGMLTMGIGGGYVTSWVGDPGAVTEYNVRFTAVVPVPNDGKGAELVFNGRVKSVDPESKSVTIALTATTGGKKIFGRAIASAKLA” reads “soluble”. With “GELDPVVTWGTTPGQGIGIDDPIPEPEDLADDKVDTARRAQKHMRVEPGETMEGYDIDVAFLGSCTNARLPDLRRAARIVKGREVADDVRAFVVPGSQRVQRAAEEEGLKDIFEEAGFEWRNAGCSMCLGMNEDQLEGDEACASSSNRNFVGRQGSKDGRTVLMNPRMVAAAAITGEVSDVRDLKEVTLA” the entry was “not soluble”; with “MRHDTRLSRVLHILIHMEKHEGAATSENIAAMLQTNPVVVRRTMAGLREHGYVSSEKGHGGGWVLAQPLTEITLLDIYRALGAPELFSIGLAGDNPNCVIEQAVNAALFDAMNEAENILLSRFGSITLSTLAEESIDRWSKLSNCPSAMEQL”, “not soluble”.
